# From article PMC5678579, “Clusterin protects neurons against intracellular proteotoxicity” (Acta Neuropathologica Communications, 2017)
# Target: full length human TDP-43-turboGFP, in vitro translated (human, UniProt Q13148 1-414)
# Experiment: cell-based or functional assay
# Chain of full length human TDP-43-turboGFP, in vitro translated (Q13148 whole entry): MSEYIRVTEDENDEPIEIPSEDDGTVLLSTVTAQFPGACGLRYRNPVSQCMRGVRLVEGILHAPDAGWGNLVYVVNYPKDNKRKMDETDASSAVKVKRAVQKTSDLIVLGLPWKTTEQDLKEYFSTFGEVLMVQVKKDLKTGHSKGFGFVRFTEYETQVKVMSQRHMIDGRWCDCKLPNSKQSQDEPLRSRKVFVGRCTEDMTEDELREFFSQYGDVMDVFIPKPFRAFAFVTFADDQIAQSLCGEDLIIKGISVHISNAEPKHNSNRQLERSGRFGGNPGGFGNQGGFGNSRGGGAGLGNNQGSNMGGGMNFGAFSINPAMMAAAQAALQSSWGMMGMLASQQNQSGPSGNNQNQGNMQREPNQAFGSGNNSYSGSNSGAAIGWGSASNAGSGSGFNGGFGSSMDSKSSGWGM
binder,measurement,value
clusterin (CLU) purified from human plasma (natural protein) chain 1: DQTVSDNELQEMSNQGSKYVNKEIQNAVNGVKQIKTLIEKTNEERKTLLSNLEEAKKKKEDALNETRESETKLKELPGVCNETMMALWEECKPCLKQTCMKFYARVCRSGSGLVGRQLEEFLNQSSPFYFWMNGDRIDSLLENDRQQTHMLDVMQDHFSRASSIIDELFQDRFFTREPQDTYHYLPFSLPHRRPHFFFPKSRIVR chain 2: SLMPFSPYEPLNFHAMFQPFLEMIHEAQQAMDIHFHSPAFQHPPTEFIREGDDDRTVCREIRHNSTGCLRMKDQCDKCREILSVDCSTNNPSQAKLRRELDESLQVAERLTRKYNELLKSYQWKMLNTSSLLEQLNEQFNWVSRLANLTQGEDQYYLRVTTVASHTSDSDVPSGVTEVVVKLFDSDPITVTVPVEVSRKNPKFMETVAEKALQEYRKKHREE,"soluble TDP-43-tGFP left after 4 h at 37 °C with 43 nM CLU, against 43 nM BSA (Western blot of the supernatant, densitometry)",8 fold
